The values below come from patent publication US20150011730A1 (UNIVERSITY OF SOUTH CAROLINA, published 2015).

Non-standard residues stand in square brackets, D forms with d. No end group written: not given here. *: point of attachment. X1 = 1‑(3,5-dichlorophenyl)‑5‑methyl‑1H‑1,2,4‑triazole‑3‑carbonyl, Cc1nc(C(=O)*)nn1-c1cc(Cl)cc(Cl)c1; Pyrazole N‑cap (R1 OCH3, R2 H, R3 H, R4 CH3, W N, X N, Y C, Z C) = not defined here; Pyrazole N‑cap (R1 Cl, R2 H, R3 Cl, R4 CH3, W N, X N, Y C, Z C) = not defined here; Pyrazole N‑cap (R1 Cl, R2 H, R3 H, R4 CH3, W N, X N, Y C, Z C) = not defined here; Pyrazole N‑cap (R1 F, R2 H, R3 H, R4 CH3, W N, X N, Y C, Z C) = not defined here; Pyrazole N‑cap (R1 H, R2 H, R3 H, R4 CH3, W N, X N, Y C, Z C) = not defined here; benzoic acid Scaffold III (R1 H, R2 CHEM-US-00025 C6H13NO) = not defined here; benzoic acid Scaffold III (R1 H, R2 CHEM-US-00026 C5H12N2) = not defined here; 3‑phenoxybenzylamide = c1ccc(Oc2cccc(CN*)c2)cc1; Ala(2-furyl) = N[C@@H](Cc1ccco1)C(=O)O; Cha = N[C@@H](CC1CCCCC1)C(=O)O; β3hL = CC(C)C[C@H](N)CC(=O)O

The labels stand for the following.
B1: 1-(3,5-dichlorophenyl)-5-methyl-1H-1,2,4-triazole-3-carbonyl-RLIF (peptide)
peptide: X1-RLIF
notes: also called SCCP 5773; 3,5-dichlorophenyl triazole
B2: SCCP 5774 (Triazole N-cap ligated to RLIF) (peptide)
peptide: {Triazole N‑cap, 4‑chlorophenyl triazole (R1 H, R2 Cl, R3 H, R4 CH3, W N, X N, Y N, Z C)}-RLIF
modifications: also: cap structure given only by scaffold parameters
notes: also called 4-chlorophenyl triazole; 4-chloro phenyl triazole
B3: SCCP 5852 (Imidazole N-cap ligated to RLIF) (peptide)
peptide: {2‑(3-fluorophenyl)‑1H‑imidazole‑4‑carbonyl}-RLIF
notes: also called 2-(3-fluorophenyl)-1H-imidazole-4-carboxamide
B4: HAKRRLIX7 (peptide)
peptide: HAKRRLIA
HELM: PEPTIDE1{H.A.K.R.R.L.I.[O=C([C@H](Cc1cccnc1)N[*:1])[*:2]].[am]}$$$$V2.0; N-terminus assumed
SMILES: CC[C@H](C)[C@H](NC(=O)[C@H](CC(C)C)NC(=O)[C@H](CCCNC(=N)N)NC(=O)[C@H](CCCNC(=N)N)NC(=O)[C@H](CCCCN)NC(=O)[C@H](C)NC(=O)[C@@H](N)Cc1c[nH]cn1)C(=O)N[C@@H](Cc1cccnc1)C(N)=O
B5: HAKRRLIX4 (peptide)
peptide: HAKRRLIA
HELM: PEPTIDE1{H.A.K.R.R.L.I.[O=C([C@H](CC1CCC1)N[*:1])[*:2]].[am]}$$$$V2.0; N-terminus assumed
SMILES: CC[C@H](C)[C@H](NC(=O)[C@H](CC(C)C)NC(=O)[C@H](CCCNC(=N)N)NC(=O)[C@H](CCCNC(=N)N)NC(=O)[C@H](CCCCN)NC(=O)[C@H](C)NC(=O)[C@@H](N)Cc1c[nH]cn1)C(=O)N[C@@H](CC1CCC1)C(N)=O
B6: HAKRRLIX3 (peptide)
peptide: HAKRRLIA
HELM: PEPTIDE1{H.A.K.R.R.L.I.[O=C([C@H](Cc1ccsc1)N[*:1])[*:2]].[am]}$$$$V2.0; N-terminus assumed
SMILES: CC[C@H](C)[C@H](NC(=O)[C@H](CC(C)C)NC(=O)[C@H](CCCNC(=N)N)NC(=O)[C@H](CCCNC(=N)N)NC(=O)[C@H](CCCCN)NC(=O)[C@H](C)NC(=O)[C@@H](N)Cc1c[nH]cn1)C(=O)N[C@@H](Cc1ccsc1)C(N)=O
B7: SAKRRL3TA G-OH (peptide)
peptide: SAKRRLXG
HELM: PEPTIDE1{S.A.K.R.R.L.[O=C([C@H](Cc1ccsc1)N[*:1])[*:2]].G}$$$$V2.0; N-terminus assumed
SMILES: CC(C)C[C@H](NC(=O)[C@H](CCCNC(=N)N)NC(=O)[C@H](CCCNC(=N)N)NC(=O)[C@H](CCCCN)NC(=O)[C@H](C)NC(=O)[C@@H](N)CO)C(=O)N[C@@H](Cc1ccsc1)C(=O)NCC(=O)O
notes: C-terminal free acid (-OH); also called SCCP 5814
B8: SAKRR{bLeu}3TAG-OH (peptide)
peptide: SAKRRLAG
HELM: PEPTIDE1{S.A.K.R.R.[CC(C)C[C@@H](CC(=O)[*:2])N[*:1]].[O=C([C@H](Cc1ccsc1)N[*:1])[*:2]].G}$$$$V2.0; N-terminus assumed
SMILES: CC(C)C[C@@H](CC(=O)N[C@@H](Cc1ccsc1)C(=O)NCC(=O)O)NC(=O)[C@H](CCCNC(=N)N)NC(=O)[C@H](CCCNC(=N)N)NC(=O)[C@H](CCCCN)NC(=O)[C@H](C)NC(=O)[C@@H](N)CO
notes: C-terminal free acid (-OH); also called SCCP 5813

T2 sequence (P11802 whole entry, chain 1 of 2): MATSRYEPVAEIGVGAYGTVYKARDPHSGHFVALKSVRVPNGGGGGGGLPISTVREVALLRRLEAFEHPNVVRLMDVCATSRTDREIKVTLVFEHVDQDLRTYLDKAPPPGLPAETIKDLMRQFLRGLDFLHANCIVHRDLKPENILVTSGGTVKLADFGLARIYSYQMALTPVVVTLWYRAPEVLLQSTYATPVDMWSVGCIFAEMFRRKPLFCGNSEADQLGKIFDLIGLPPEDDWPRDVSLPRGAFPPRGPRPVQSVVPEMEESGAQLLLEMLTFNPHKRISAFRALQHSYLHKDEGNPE
T2 sequence (P24385 whole entry, chain 2 of 2): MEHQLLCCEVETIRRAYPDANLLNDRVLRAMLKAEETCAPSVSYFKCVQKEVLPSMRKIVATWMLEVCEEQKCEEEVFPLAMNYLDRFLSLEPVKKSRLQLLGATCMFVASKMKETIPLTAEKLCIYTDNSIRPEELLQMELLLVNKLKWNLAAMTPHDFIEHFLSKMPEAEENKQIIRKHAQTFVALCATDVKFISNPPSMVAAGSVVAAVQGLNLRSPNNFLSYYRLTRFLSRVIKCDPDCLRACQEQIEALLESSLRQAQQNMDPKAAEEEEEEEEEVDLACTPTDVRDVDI

In the first test the target is T1, CDK2/cyclin A (as used in the binding assay) (UniProt P24941 1-298; P20248 1-432). As to the kind of experiment: binding assay.
For the molecule B1, the IC50 (usually the midpoint of a concentration-inhibition curve) stood at 12 µM. Molecule B2 gave an IC50 of 25 µM. Against the preceding molecule, the IC50 is about 2.1-fold higher.

For a further test, the target named is T1, CDK2/cyclin A (as used in the binding …). The test can be described thus: FP binding assay.
On to {Pyrazole N‑cap (R1 Cl, R2 H, R3 H, R4 CH3, W N, X N, Y C, Z C)}-RLIF (reading uncertain; also: cap structure given only by scaffold parameters) [SCCP 5764 (Pyrazole N-cap ligated to RLIF)], for which the IC50 was found to be 11.9 µM.

The molecule B3 gave an IC50 of 34.3 µM. For {Pyrazole N‑cap (R1 Cl, R2 H, R3 Cl, R4 CH3, W N, X N, Y C, Z C)}-RLIF (reading uncertain; also: cap structure given only by scaffold parameters) [SCCP 5763 (Pyrazole N-cap ligated to RLIF)], the IC50 is 21.8 µM.

In the case of {Pyrazole N‑cap (R1 OCH3, R2 H, R3 H, R4 CH3, W N, X N, Y C, Z C)}-RLIF (reading uncertain; also: cap structure given only by scaffold parameters) [SCCP 5766 (Pyrazole N-cap ligated to RLIF)], the IC50 is 64.1 µM.

Molecule B1 returned an IC50 of 4 µM. This IC50 lies about 16-fold lower than the previous one. As for B2, the IC50 is 11.5 µM. For {Pyrazole N‑cap (R1 F, R2 H, R3 H, R4 CH3, W N, X N, Y C, Z C)}-RLIF (reading uncertain; also: cap structure given only by scaffold parameters) [SCCP 5771 (Pyrazole N-cap ligated to RLIF)], the IC50 was 29.6 µM. Same read-out and setting: the same measure for {Triazole N‑cap (R1 H, R2 H, R3 H, R4 H, W N, X N, Y N, Z C)}-RLIF (also: cap structure given only by scaffold parameters) [SCCP 5843 (Triazole N-cap ligated to RLIF)]: 16.2 µM.

The next test addresses T2, CDK4/cyclin D1 (as used in the binding assay) (UniProt P11802 1-303; P24385 1-295).
T2 construct: kept apart from the GST-tagged kinase-assay complex m2; also called CDK4/D1
The test can be described thus: FP binding assay.
Regarding {Pyrazole N‑cap (R1 Cl, R2 H, R3 H, R4 CH3, W N, X N, Y C, Z C)}-RLIF (reading uncertain; also: cap structure given only by scaffold parameters) [SCCP 5764 (Pyrazole N-cap ligated to RLIF)], the IC50 came out at 45 µM. B3 gave an IC50 of 67 µM. The IC50 values of the last two molecules are within 1.5-fold of each other. For the molecule {Pyrazole N‑cap (R1 H, R2 H, R3 H, R4 CH3, W N, X N, Y C, Z C)}-RLIF (reading uncertain; also: cap structure given only by scaffold parameters) [SCCP 5762 (Pyrazole N-cap ligated to RLIF)], the IC50 is 53.8 µM. B1: the IC50 worked out at 27 µM. Same read-out and setting: the same measure for B2: 11.3 µM; for {Pyrazole N‑cap (R1 F, R2 H, R3 H, R4 CH3, W N, X N, Y C, Z C)}-RLIF (reading uncertain; also: cap structure given only by scaffold parameters) [SCCP 5771 (Pyrazole N-cap ligated to RLIF)]: 69.6 µM; for {Triazole N‑cap (R1 H, R2 H, R3 H, R4 H, W N, X N, Y N, Z C)}-RLIF (also: cap structure given only by scaffold parameters) [SCCP 5843 (Triazole N-cap ligated to RLIF)]: 48.7 µM.

The next test concerns the target T3, CDK2/Cyclin A2, full-length recombinant, N-terminal GST tag on both proteins (UniProt P24941 1-298; P20248 1-432). The test can be described thus: cell-based or functional assay.
Regarding B4, the “IC50, kinase assay” value amounted to 29 µM.

HAKRRLI[2‑thienylalanine]-NH2 [HAKRRLIX2]: the “IC50, kinase assay” value is 3.6 µM. For the molecule B5, the “IC50, kinase assay” value is 25 µM.

As for HAKRRLI[Ala(2-furyl)]-NH2 [HAKRRLIX1], the “IC50, kinase assay” value came out at 6.1 µM. Regarding B6, the “IC50, kinase assay” value was 25 µM. Same read-out and setting: the same measure for HAKRRLI[Cha]-NH2 (not fully specified, also called HAKRRLIX6; HAKRRLI{CHA}) [HAKRRLIR6]: 58 µM.

In the next test the target is CDK2/E (UniProt P24941 1-298; P24864 1-410). The test can be described thus: cell-based or functional assay.
Regarding HAKRRLI[Ala(2-furyl)]-NH2 [HAKRRLIX1], the “IC50, kinase assay” value worked out at 1.3 µM.

Another test concerns the target T3, CDK2/Cyclin A2, full-length …. As to the kind of experiment: cell-based or functional assay. This is another data set of the same source.
On to Arg-Arg-[β3hL]-{3‑phenoxybenzylamide} [Arg-Arg-β-homoleucyl-3-phenoxybenzylamid], for which the “IC50, kinase assay” value was greater than 100 µM. In the case of HAKTRLIF-NH2, the “IC50, kinase assay” value was 50 µM and the “Potency ratio vs native HAKRRLIF” value was 38.5 ratio.

The target of a further test is CDK4/Cyclin D1, full-length recombinant, N-terminal GST tag on both proteins (UniProt P11802 2-303; P24385 1-295). The test can be described thus: cell-based or functional assay.
Sequence of CDK4/Cyclin D1, full-length recombinant, N-terminal GST tag on both proteins (P11802 2-303, chain 1 of 2): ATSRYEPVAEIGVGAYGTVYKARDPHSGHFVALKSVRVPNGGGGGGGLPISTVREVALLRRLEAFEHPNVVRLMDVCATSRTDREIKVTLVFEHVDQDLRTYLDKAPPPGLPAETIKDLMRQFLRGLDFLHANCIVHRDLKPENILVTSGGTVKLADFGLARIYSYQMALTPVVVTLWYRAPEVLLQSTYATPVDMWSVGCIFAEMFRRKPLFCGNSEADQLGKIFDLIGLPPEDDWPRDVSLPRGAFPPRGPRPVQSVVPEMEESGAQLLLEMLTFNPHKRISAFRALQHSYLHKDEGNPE
Sequence of CDK4/Cyclin D1, full-length recombinant, N-terminal GST tag on both proteins (P24385 whole entry, chain 2 of 2): as the sequence (P24385 whole entry, chain 2 of 2) above
PAKRRLFG-NH2: the “IC50, kinase assay” value was 6.7 µM. For the molecule Arg-Arg-[β3hL]-{3‑phenoxybenzylamide} [Arg-Arg-β-homoleucyl-3-phenoxybenzylamid], the “IC50, kinase assay” value is 60 µM and the Potency ratio came to 20.7 ratio. Consider SAKRALFGM-NH2, for which the “IC50, kinase assay” value was determined as 68 µM. The same measure, in the same setting: the result for XRLIF (Cit at position 1 = citrulline; C-terminal amide, also called SCCP 5812) [CitRLIF] reads 179 µM. With HAKTRLIF-NH2, the “IC50, kinase assay” value came to 25 µM and the “Potency ratio vs native HAKRRLIF” value was 16.7 ratio.

For SAKRNLFGM-NH2, the “IC50, kinase assay” value was determined as 146 µM.

In another test the target is T2, CDK4/cyclin D1 (as used in the binding …).
Test: not given
Turning to {benzoic acid Scaffold III (R1 H, R2 CHEM-US-00025 C6H13NO)}-RLIF (not fully specified (C-terminus); reading uncertain) [SCCP 5851 (benzoic acid N-cap-RLIF)], the “fold enhancement of activity vs unsubstituted benzoic acid” value was 26 fold. Turning to {benzoic acid Scaffold III (R1 H, R2 CHEM-US-00026 C5H12N2)}-RLIF (reading uncertain; also: cap structure given only by scaffold parameters) [SCCP 5850 (benzoic acid N-cap-RLIF)], the “fold enhancement of activity vs unsubstituted benzoic acid” value came out at 9 fold.

For the next test, the target named is T1, CDK2/cyclin A (as used in the binding …).
Test: not given
Molecule RKLIF (dimethyllysine at position 2 (lysine with the epsilon amino group methylated), also called SCCP 5918) [R(dimethyllys)LIF] gave an IC50 of 5400 nM. On the same count and under the same terms, the result for B7 reads 430 nM; that for B8, 310 nM. On the same count and under the same terms, the same measure for HAKRRLI[Cha]-NH2 (not fully specified, also called HAKRRLIX6; HAKRRLI{CHA}) [HAKRRLIR6]: 250 nM.

The next test addresses T2, CDK4/cyclin D1 (as used in the binding …).
Test: not given
This is another data set of the same source.
As for RKLIF (dimethyllysine at position 2 (lysine with the epsilon amino group methylated), also called SCCP 5918) [R(dimethyllys)LIF], the IC50 came out at 72.2 µM. In other words, the double-digit micromolar range. RXLIF (Cit at position 2 = citrulline; C-terminal amide, also called SCCP 5831) [RCitLIF]: the IC50 is 46.5 µM. The molecule HAKRRLI[Cha]-NH2 (not fully specified, also called HAKRRLIX6; HAKRRLI{CHA}) [HAKRRLIR6] came in with an IC50 of 0.26 µM. The same measure, in the same setting: the same measure for XRLIF (Cit at position 1 = citrulline; C-terminal amide, also called SCCP 5812) [CitRLIF]: 72.3 µM; for RRLNF (pfF at position 5 = p-fluorophenylalanine; C-terminal amide, also called SCCP 540) [RRLNpfF]: 8 µM.
